# Laboratory results taken from patent publication US20200370136.
# Experiments:
# [1] = test system: T7 RNA polymerase, SNAPf fusion (T7 RNAP-SNAPf), freely diffusing (bacteriophage T7?); details: Michaelis Km of transcription; 10 mM MgCl2, 37 C; Vmax 62 nM/s
# [2] = test system: T7 RNA polymerase, SNAPf fusion, anchored on DNA origami tile (T7-chip) (bacteriophage T7?); details: apparent Michaelis Km of transcription for externally diffusing gene; 10 mM MgCl2, 37 C; Vmax 34 nM/s
substance,measurement,setting,value
sfGFP gene with T7 promoter (942 nt transcript),K half,[1],5.6 nM
same,K half,[2],1010 nM
